Measurements reported in patent US20120108492A1, “LIGAND-SPECIFIC NON-ANTIBODY COMPOUNDS THAT INHIBIT CR2 ACTIVATION AND METHODS OF USE THEREOF” (The Regents of the University of Colorado, priority 2008, published 2012).
Read-outs that look alike come from different tables or passages of the source.

Assays:
[1] = target: T1, wild-type MBP-CR2 SCR1-2 (human), P20023; assay: competition ELISA: C3d on plate, MBP-CR2 SCR1-2 with increasing peptide, ⅓×PBS
T1 chain: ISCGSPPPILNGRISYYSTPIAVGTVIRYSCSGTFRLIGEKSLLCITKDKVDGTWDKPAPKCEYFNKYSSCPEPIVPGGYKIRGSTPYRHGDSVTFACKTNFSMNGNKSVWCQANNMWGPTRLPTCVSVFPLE

[2] = target: T1, wild-type MBP-CR2 SCR1-2 (human), P20023

ISTSNPRH (modifications not checked) [peptide C3dp2.2]
IC50 [1]: 190 µM

TRSYQSSLHQPA (modifications not checked) [peptide C3dp1.2]
IC50 [1]: 70 µM

APQHLSSQYSRT (modifications not checked) [peptide C3dp1]
IC50 [1]: 100 µM

APAHLSSQ (modifications not checked) [control peptide]
IC50 [1]: 700 µM

IATANPRHHSTA (modifications not checked) [peptide C3dp2.3]
IC50 [1]: 160 µM

CSEGSLKGC (modifications not checked) [peptide EBV gp350 cp1]
IC50 [2]: 150 µM

APQHLSSQ (modifications not checked) [peptide C3dp1.3]
IC50 [1]: 40 µM

APQALSSQYSRT (modifications not checked) [peptide C3dp1.1]
IC50 [1]: 70 µM

ISTSNPRAASTA (modifications not checked) [peptide C3dp2.1]
IC50 [1]: 150 µM

DPKNHVH (modifications not checked) [peptide C3dcp1.1]
IC50 [1]: 95 µM

ISTSNPRHHSTA (modifications not checked) [peptide C3dp2]
IC50 [1]: 450 µM
